In paper PMC10413161:

B1: human complement C1r, zymogen form (enzyme)
chain: SIPIPQKLFGEVTSPLFPKPYPNNFETTTVITVPTGYRVKLVFQQFDLEPSEGCFYDYVKISADKKSLGRFCGQLGSPLGNPPGKKEFMSQGNKMLLTFHTDFSNEENGTIMFYKGFLAYYQAVDLDECASRSKSGEEDPQPQCQHLCHNYVGGYFCSCRPGYELQEDTHSCQAECSSELYTEASGYISSLEYPRSYPPDLRCNYSIRVERGLTLHLKFLEPFDIDDHQQVHCPYDQLQIYANGKNIGEFCGKQRPPDLDTSSNAVDLLFFTDESGDSRGWKLRYTTEIIKCPQPKTLDEFTIIQNLQPQYQFRDYFIATCKQGYQLIEGNQVLHSFTAVCQDDGTWHRAMPRCKIKDCGQPRNLPNGDFRYTTTMGVNTYKARIQYYCHEPYYKMQTRAGSRESEQGVYTCTAQGIWKNEQKGEKIPRCLPVCGKPVNPVEQRQRIIGGQKAKMGNFPWQVFTNIHGRGGGALLGDRWILTAAHTLYPKEHEAQSNASLDVFLGHTNVEELMKLGNHPIRRVSVHPDYRQDESYNFEGDIALLELENSVTLGPNLLPICLPDNDTFYDLGLMGYVSGFGVMEEKIAHDLRFVRLPVANPQACENWLRGKNRMDVFSQNMFCAGHPSLKQDACQGDSGGVFAVRDPNTDRWVATGIVSWGIGCSRGYGFYTKVLNYVDWIKKEMEEED
B2: human complement C1r, activated form (enzyme)
chain: B1 chain

Assays:
[1] = target: human complement C1r, zymogen form (human) (UniProt P00736)
[2] = target: Borrelia hermsii strain HS1 FbpC C-terminal domain, residues 212-374 (Borrelia hermsii strain HS1); experiment: SPR; FbpC-C, FbpC-C R248A or FbpC-C H252A immobilised by amine coupling on a CMD200 chip (1138.2, 975.2, 1082 RU); zymogen or active C1r injected, single-cycle five-fold dilution series 0.16 to 100 nM; Biacore T200, 25 °C, 30 μl/min; HBS-T (10 mM Hepes pH 7.3, 140 mM NaCl, 0.005% Tween 20) with 5 mM CaCl2; kinetic fits, triplicate
[3] = target: Borrelia hermsii strain HS1 FbpC C-terminal domain, residues 212-374, R248A (Borrelia hermsii strain HS1); experiment: as above
[4] = target: Borrelia hermsii strain HS1 FbpC C-terminal domain, residues 212-374, H252A (Borrelia hermsii strain HS1); experiment: as above

Molecule	CP hemolysis of presensitized sheep erythrocytes (2% normal human serum), IC50 [1]	CP-specific complement ELISA (C4b deposition, 2% normal human serum), IC50 [1]	Kd [2]	koff [2]	kon [2]	Kd [3]	koff [3]	kon [3]	Kd [4]	koff [4]	kon [4]
Borrelia hermsii strain HS1 FbpC C-terminal domain, residues 212-374, R248A (domain or fragment)	1200 nM	23 nM									
Borrelia hermsii strain HS1 FbpC C-terminal domain, residues 212-374, H252A (domain or fragment)		300 nM									
Borrelia hermsii strain HS1 FbpC C-terminal domain, residues 212-374 (domain or fragment)	320 nM	8.6 nM									
B1			1.2 nM	5.4e-05 s⁻¹	44000 M⁻¹ s⁻¹	13 nM	0.00063 s⁻¹	69000 M⁻¹ s⁻¹			
B2			0.3 nM	1.4e-05 s⁻¹	48000 M⁻¹ s⁻¹	0.19 nM	9.4e-06 s⁻¹	45000 M⁻¹ s⁻¹	2.4 nM	0.00012 s⁻¹	51000 M⁻¹ s⁻¹
